What all share (conditions): parent: 1; read off a plot
The target of experiment [1] is REL1 ligase, endogenous (UniProt P86927). Description: IgG pulldown of TAP-tagged H2F1, self-adenylation reaction quantification.
Experiment [2] has as its target GAP1, endogenous. Put plainly: IgG pulldown of TAP-tagged H2F1, western blot quantification.
For experiment [3], the target named is REH2-Associated Factor 1 (^H2F1), endogenous (UniProt Q585P3). The description is as above.
In experiment [4] the target is RNA Editing Helicase 2 (REH2), endogenous (UniProt Q581T1). The experiment is described as above.
In experiment [5] the target is GAP1, endogenous. Put plainly: IgG pulldown of TAP-tagged REH2, western blot quantification. (Immunoblotting shows a protein as a band on a membrane.)

^H2F1 wild type with TAP tag (from UniProt Q585P3) Z3 R/K>A, sequence (Q585P3 23-524, change not shown): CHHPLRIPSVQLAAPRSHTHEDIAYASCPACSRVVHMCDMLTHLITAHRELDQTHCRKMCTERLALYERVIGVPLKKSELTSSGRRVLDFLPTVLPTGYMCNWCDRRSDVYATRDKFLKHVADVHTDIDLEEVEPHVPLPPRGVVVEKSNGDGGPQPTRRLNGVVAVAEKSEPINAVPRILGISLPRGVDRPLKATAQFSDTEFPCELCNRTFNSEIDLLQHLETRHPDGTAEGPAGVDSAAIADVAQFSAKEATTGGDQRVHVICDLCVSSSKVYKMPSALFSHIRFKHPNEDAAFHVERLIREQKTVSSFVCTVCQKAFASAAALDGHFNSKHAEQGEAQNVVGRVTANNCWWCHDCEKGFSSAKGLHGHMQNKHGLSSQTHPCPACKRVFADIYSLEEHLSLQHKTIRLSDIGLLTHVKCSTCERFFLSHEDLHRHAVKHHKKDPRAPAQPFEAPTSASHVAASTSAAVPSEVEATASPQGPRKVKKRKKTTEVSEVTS
^H2F1 wild type with TAP tag (from UniProt Q585P3) Z5 R/K>A, sequence (Q585P3 23-524, change not shown): as above
REH2-Associated Factor 1 (^H2F1), endogenous, sequence (Q585P3 23-524): as the sequence (Q585P3 23-524, change not shown) above
^H2F1 wild type with TAP tag (from UniProt Q585P3) Z1 R/K>A, sequence (Q585P3 23-524, change not shown): as above
^H2F1 wild type with TAP tag (from UniProt Q585P3) Z2 R/K>A, sequence (Q585P3 23-524, change not shown): as above

Turning to “^H2F1 wild type with TAP tag (from UniProt Q585P3) Z1 R/K>A”, the ratio to parent is 0.72 in experiment [1], 0.85 in experiment [2], 0.87 in experiment [3] and 0.75 in experiment [4].
“RNA Editing Helicase 2 (REH2) wild type with TAP tag (from UniProt Q581T1) R2023A”: the ratio to parent in experiment [5] was 0.66.
The same measure, in the same setting: as for “RNA Editing Helicase 2 (REH2) wild type with TAP tag (from UniProt Q581T1) H1998E”, the figure is 0.52.
As to “^H2F1 wild type with TAP tag (from UniProt Q585P3) Z5 R/K>A”, the ratio to parent came out at 0.77 in experiment [1], 0.99 in experiment [2], 1 in experiment [3] and 0.97 in experiment [4].
For “^H2F1 wild type with TAP tag (from UniProt Q585P3) Z3 R/K>A”, the ratio to parent in experiment [1] came out at 0.62; in experiment [2], 1; in experiment [3], 1.2; in experiment [4], 0.85.
Turning to “^H2F1 wild type with TAP tag (from UniProt Q585P3) Z2 R/K>A”, the ratio to parent in experiment [1] stood at 0.83; in experiment [2] it was 0.95; in experiment [3], 0.83; in experiment [4] it was 0.78.
“RNA Editing Helicase 2 (REH2) wild type with TAP tag (from UniProt Q581T1) R1979A”: in experiment [5], the ratio to parent was determined as 1.
For the substance “RNA Editing Helicase 2 (REH2) wild type with TAP tag (from UniProt Q581T1) K1078A; A1086D”, the ratio to parent in experiment [5] was 0.17.

The values above are taken from paper PMC6488192 (2019).
